Experimental data from publication PMC8273886, “Design of a Stable Cyclic Peptide Analgesic Derived from Sunflower Seeds that Targets the κ-Opioid Receptor for the Treatment of Chronic Abdominal Pain” (Journal of Medicinal Chemistry, 2021).
Bridge positions count the residues as written; N and C are the ends. Square brackets hold non-standard residues; d marks the D form. dNle = CCCC[C@@H](N)C(=O)O

B1: sunflower trypsin inhibitor-1 (SFTI-1) (peptide)
peptide: cyclo(CTKSIPPICFPDGR)
modifications: disulfide 1-9 (inferred)
notes: SFTI-1, 14-residue cyclic peptide from the seeds of sunflower (Helianthus annuus); The methods say that all peptides were synthesised; source: synthetic peptide (Fmoc chemistry, backbone cyclised, oxidised, RP-HPLC purified)
B2: helianorphin-8 (peptide)
peptide: cyclo(CTYGGFPICFPDGR)
modifications: disulfide 1-9 (inferred)
notes: SFTI-1 scaffold with dyn A 1–4 (YGGF) grafted after CT; source: synthetic peptide (Fmoc chemistry, backbone cyclised, oxidised, RP-HPLC purified)
B3: helianorphin-5 (peptide)
peptide: cyclo(CYGGFLRICFPDGR)
modifications: disulfide 1-9 (inferred)
notes: SFTI-1 scaffold with dyn A 1–6 (YGGFLR) grafted after the first Cys; source: synthetic peptide (Fmoc chemistry, backbone cyclised, oxidised, RP-HPLC purified)
B4: helianorphin-10 (peptide)
peptide: cyclo(CT[dF][dF][dL][dK]PICFPDGR)
modifications: disulfide 1-9 (inferred)
notes: source: synthetic peptide (Fmoc chemistry, backbone cyclised, oxidised, RP-HPLC purified)
B5: helianorphin-9 (peptide)
peptide: cyclo(CTASIPPICYGGFR)
modifications: disulfide 1-9 (inferred)
notes: SFTI-1 scaffold (K replaced with A) with dyn A 1–4 (YGGF) grafted after the second Cys; source: synthetic peptide (Fmoc chemistry, backbone cyclised, oxidised, RP-HPLC purified)
B6: helianorphin-6 (peptide)
peptide: cyclo(CTYGGFLRCFPDGR)
modifications: disulfide 1-9 (inferred)
notes: SFTI-1 scaffold with dyn A 1–6 (YGGFLR) grafted after CT; source: synthetic peptide (Fmoc chemistry, backbone cyclised, oxidised, RP-HPLC purified)
B7: helianorphin-7 (peptide)
peptide: cyclo(CTASIPPICYGGFLR)
modifications: disulfide 1-9 (inferred)
notes: SFTI-1 scaffold (K replaced with A) with YGGFL grafted after the second Cys; source: synthetic peptide (Fmoc chemistry, backbone cyclised, oxidised, RP-HPLC purified)
B8: helianorphin-11 (peptide)
peptide: cyclo(CTASIPPIC[dF][dF][dL][dK]R)
modifications: disulfide 1-9 (inferred)
notes: as for B4
B9: helianorphin-2 (peptide)
peptide: cyclo(CTKSIPPICYGGFLRRIRPKLK)
modifications: disulfide 1-9 (inferred)
notes: as for B4
B10: helianorphin-3 (peptide)
peptide: cyclo(CYGGFLRRICFPDGR)
modifications: disulfide 1-10 (inferred)
notes: as for B4
B11: helianorphin-4 (peptide)
peptide: cyclo(CTKSIPPICYGGFLRRI)
modifications: disulfide 1-9 (inferred)
notes: as for B4
B12: helianorphin-18 (peptide)
peptide: cyclo(CTYGGFLRCRIRPKLK)
modifications: disulfide 1-9 (inferred)
notes: dyn A 1–13 divided into two fragments (YGGFLR and RIRPKLK) placed in the two loops of the SFTI-1 scaffold; source: synthetic peptide (Fmoc chemistry, backbone cyclised, oxidised, RP-HPLC purified)
B13: helianorphin-19 (peptide)
peptide: cyclo(CYGGFLRRCIRPKLK)
modifications: disulfide 1-9 (inferred)
notes: dyn A 1–13 divided into two fragments (YGGFLRR and IRPKLK) placed in the two loops of the SFTI-1 scaffold; source: synthetic peptide (Fmoc chemistry, backbone cyclised, oxidised, RP-HPLC purified)

Target: T1, mouse κ-opioid receptor (KOR) tagged with EGFP (mouse, UniProt P33534 1-380)
T1 construct: κ-opioid receptor, mouse; cloned into the pEGFP-N1 vector with BamHI and HindIII; read as EGFP at the receptor's C-terminus; also called mouse KOR; KOR-EGFP; source: HEK293, stably expressing (membrane preparations; whole cells for cAMP); HEK293, transiently transfected (BRET); not shown: EGFP, C-terminal, kept
Assay: radioligand binding; three concentrations of SFTI-1 (μM), displacement of 1 nM [3H]-diprenorphine on membranes of HEK293 cells stably expressing the mouse KOR
Conditions: one partner purified

**Q.** B1 was tested. Which Ki did it give?
**A.** > 30000 nM

Target: T1, mouse κ-opioid receptor (KOR) tagged …
Assay: radioligand binding; two-point displacement: 1 nM [3H]-diprenorphine with or without 10 μM or 100 nM peptide on membranes of HEK293 cells stably expressing the mouse KOR
Conditions: one partner purified

**Q.** Which Ki does the source give for B2 here?
**A.** > 10000 nM

**Q.** cyclo(CTASIPPIC[dF][dF][dNle][dR]R) (disulfide 1-9 (inferred)) [helianorphin-13] was tested. Which Ki did it give?
**A.** > 10000 nM

**Q.** How did the Ki turn out when B3 was run?
**A.** > 10000 nM

**Q.** B4 was tested. Which Ki did it give?
**A.** > 10000 nM

**Q.** With B5 as the binder, how does the Ki read?
**A.** > 10000 nM

**Q.** For B6, which Ki is on record?
**A.** > 10000 nM

**Q.** Which Ki does the source give for B7 here?
**A.** > 10000 nM

**Q.** How did the Ki turn out when B8 was run?
**A.** > 10000 nM

Target: T1, mouse κ-opioid receptor (KOR) tagged …
Assay: radioligand binding; concentration-dependent competition against 1 nM [3H]-diprenorphine on membranes (7 μg/assay) of HEK293 cells stably expressing the mouse KOR; 50 mM Tris–HCl pH 7.4, 10 mM MgCl2, 0.1% BSA; 1 h at 37 °C; Ki from IC50 by Cheng and Prusoff
Conditions: one partner purified

**Q.** How did the Ki turn out when B9 was run?
**A.** 97 nM

**Q.** How did the Ki turn out when B10 was run?
**A.** 3200 nM

**Q.** Which Ki does the source give for B11 here?
**A.** 2500 nM

**Q.** Which Ki does the source give for B12 here?
**A.** 650 nM

**Q.** With B13 as the binder, how does the Ki read?
**A.** 21 nM

Target: T1, mouse κ-opioid receptor (KOR) tagged …
Assay: cell-based or functional assay
Conditions: not given

**Q.** With B13 as the binder, how does the “β-arrestin-2 recruitment to the KOR (BRET, HEK293 cells with mouse KOR-EGFP and β-arrestin-2-nano-luciferase), EC50” value read?
**A.** 1400 nM

Target: T1, mouse κ-opioid receptor (KOR) tagged …
Assay: cell-based or functional assay
Conditions: not given
Remark: another data set of the same source

**Q.** With B9 as the binder, how does the “cAMP inhibition in HEK293 cells stably expressing the mouse KOR, EC50” value (shortened to “cAMP inhibition … EC50”) read?
**A.** 1300 nM

**Q.** And the “cAMP inhibition in HEK293 cells stably expressing the mouse KOR, Emax” value (from here on “cAMP inhibition … Emax”)?
**A.** 102%

**Q.** For B10, which “cAMP inhibition … EC50” value is on record?
**A.** 1400 nM

**Q.** And the “cAMP inhibition … Emax” value?
**A.** 85.1%

**Q.** For B11, which “cAMP inhibition … EC50” value is on record?
**A.** 4700 nM

**Q.** And the “cAMP inhibition … Emax” value?
**A.** 87.8%

**Q.** With cyclo(CYGGFLRRIRPKLKCFPDGR) (disulfide 1-15 (inferred)) [helianorphin-1] as the binder, how does the “cAMP inhibition … Emax” value read?
**A.** 106%

**Q.** How did the “cAMP inhibition … Emax” value turn out when cyclo(CT[dF][dF][dNle][dR]PICFPDGR) (disulfide 1-9 (inferred)) [helianorphin-12] was run?
**A.** 117%

**Q.** For B13, which “cAMP inhibition … EC50” value is on record?
**A.** 45 nM

**Q.** What about the “cAMP inhibition … Emax” value of the same binder?
**A.** 108%

Target: T2, mouse δ-opioid receptor (DOR) (mouse, UniProt P32300 1-372)
T2 construct: δ-opioid receptor, mouse; the construct is not described; source: HEK293, stably expressing, membrane preparations
Assay: radioligand binding; competition against [3H]-diprenorphine on membranes of HEK293 cells stably expressing the mouse MOR (50 μg) or DOR (20 μg); 50 mM Tris–HCl pH 7.4, 10 mM MgCl2, 0.1% BSA; 1 h at 37 °C
Conditions: one partner purified

**Q.** With B13 as the binder, how does the Ki read?
**A.** > 10000 nM

Target: T3, mouse μ-opioid receptor (MOR) (mouse, UniProt P42866 1-398)
T3 construct: μ-opioid receptor, mouse; the construct is not described; source: HEK293, stably expressing, membrane preparations
Assay: as above
Conditions: one partner purified

**Q.** With B13 as the binder, how does the Ki read?
**A.** > 10000 nM
